Biological target: Daedalus-expressed CARMA-CARD (N-terminal CARD domain of human CARMA1, Asp2-Thr104) (human)
Assay: SEC

For “Daedalus-expressed CARMA-CARD (N-terminal CARD domain of human CARMA1, Asp2-Thr104) (domain or fragment)”, the stoichiometry N was 2.
